Measurements from publication PMC3287977.

Columns and labels:
[1] = molecular target: A. fulgidus HypB, tag-free (Archaeoglobus fulgidus); assay: SEC-MALS; AfHypB (0.5 mM) preloaded with 5 mM GMPPNP and 1 mM NiCl2, excess removed; Superdex-75 HR10/30, 50 mM Tris pH 7.5, 0.2 M NaCl, 5 mM MgCl2, 1 mM TCEP
[2] = molecular target: A. fulgidus HypA, tag-free (Archaeoglobus fulgidus) (UniProt O28904); assay: SEC-MALS; equimolar AfHypA and AfHypB preloaded with GDP (monomeric form); Superdex-75 HR10/30, 50 mM Tris pH 7.5, 0.2 M NaCl, 1 mM TCEP, room temperature; peaks checked by SDS-PAGE
Sequence of UniProt O28904 (O28904 whole entry): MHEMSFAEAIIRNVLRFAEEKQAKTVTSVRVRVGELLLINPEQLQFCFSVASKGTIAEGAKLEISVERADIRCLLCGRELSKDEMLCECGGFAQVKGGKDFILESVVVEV

stoichiometry N [1]: 2 | stoichiometry N [2]: 1
Substance: A. fulgidus HypB, tag-free (natural protein)
